Laboratory results: publication PMC4072508 (PLoS Computational Biology, 2014)
FAM = fluorescein group

T1: Bcl-w (human, UniProt Q92843 1-193)
T1 construct: human Bcl-w; The c-Myc tag is told for the SPOT arrays; also called c-Myc-tagged receptor; prosurvival protein
T1 sequence (looked up): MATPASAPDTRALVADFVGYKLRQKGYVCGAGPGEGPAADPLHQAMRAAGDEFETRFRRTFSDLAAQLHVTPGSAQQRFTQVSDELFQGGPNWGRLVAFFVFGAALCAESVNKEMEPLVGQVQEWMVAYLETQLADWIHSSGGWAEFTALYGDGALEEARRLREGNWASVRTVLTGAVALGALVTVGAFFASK

T2: Bfl-1 (human, UniProt Q16548 1-175)
T2 construct: human Bfl-1; The c-Myc tag is told for the SPOT arrays; also called c-Myc-tagged receptor; prosurvival protein
T2 sequence (looked up): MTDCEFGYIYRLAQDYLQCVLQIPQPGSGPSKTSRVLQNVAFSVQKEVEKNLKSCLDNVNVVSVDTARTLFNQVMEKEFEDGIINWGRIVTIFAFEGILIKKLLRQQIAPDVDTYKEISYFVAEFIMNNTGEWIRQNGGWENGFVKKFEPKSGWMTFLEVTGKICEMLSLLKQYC


Legend:
Assay in all cases: fluorescence polarisation; direct binding: 10 nM FAM-labeled peptide, receptor serially diluted; 25°C; 20 mM NaPO4, 50 mM NaCl, 1 mM EDTA, 0.001% Triton X, pH 7.8; single-site binding model
Conditions in all cases: both partners purified
Bcl-w = target: T1, Bcl-w
Mcl-1 = target: T3, Mcl-1 (human, UniProt Q07820 1-350)
T3 construct: human Mcl-1; The c-Myc tag is told for the SPOT arrays; also called c-Myc-tagged receptor; prosurvival protein

Bcl-2 = target: T4, Bcl-2 (human, UniProt P10415 1-239)
T4 construct: human Bcl-2; The c-Myc tag is told for the SPOT arrays; also called c-Myc-tagged receptor; prosurvival protein

Bfl-1 = target: T2, Bfl-1

T4 sequence (P10415 whole entry): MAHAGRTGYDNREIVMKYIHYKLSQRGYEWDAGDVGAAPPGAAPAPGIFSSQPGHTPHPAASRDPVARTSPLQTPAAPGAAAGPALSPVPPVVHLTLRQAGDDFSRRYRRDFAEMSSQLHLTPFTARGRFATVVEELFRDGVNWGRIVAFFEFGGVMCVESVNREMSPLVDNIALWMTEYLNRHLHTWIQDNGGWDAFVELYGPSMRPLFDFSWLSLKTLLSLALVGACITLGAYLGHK
T3 sequence (Q07820 whole entry): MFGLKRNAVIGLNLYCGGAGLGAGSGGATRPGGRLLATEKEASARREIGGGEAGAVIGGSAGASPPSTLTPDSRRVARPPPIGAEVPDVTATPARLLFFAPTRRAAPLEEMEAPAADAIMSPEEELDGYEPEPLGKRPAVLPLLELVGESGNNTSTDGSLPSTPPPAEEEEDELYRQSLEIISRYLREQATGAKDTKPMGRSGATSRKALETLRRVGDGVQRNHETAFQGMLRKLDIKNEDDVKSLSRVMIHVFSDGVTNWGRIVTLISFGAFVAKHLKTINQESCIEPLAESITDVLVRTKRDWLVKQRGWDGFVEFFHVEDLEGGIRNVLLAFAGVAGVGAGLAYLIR

Row | Kd (Bcl-w) | Kd (Mcl-1) | Kd (Bcl-2) | Kd (Bfl-1) | Binder
1 | < 30 nM | < 30 nM | < 30 nM | < 30 nM | {FAM}-IIQMIVELLKRVGDQWEEEQSLA-NH2 [c6orf222 BH3-like peptide]
2 | – | – | 40 nM | – | {FAM}-PFKAWGKFGGAFCRYADEMKEIQERQ-NH2 [PURB BH3-like peptide]
